# Where a chain is given by its changes, count along the chain named. Numbers in names are those of the source.
# T1: CtRoc-COR (Chlorobaculum tepidum, UniProt Q8KC98)
# T1 construct: gene CT1526; Roc-COR domains, residues 412-946, N-terminal His-tag (pProEX), E. coli BL21(DE3); dimer nucleotide-free, about 65 kDa monomer
# T1 sequence (Q8KC98 412-946): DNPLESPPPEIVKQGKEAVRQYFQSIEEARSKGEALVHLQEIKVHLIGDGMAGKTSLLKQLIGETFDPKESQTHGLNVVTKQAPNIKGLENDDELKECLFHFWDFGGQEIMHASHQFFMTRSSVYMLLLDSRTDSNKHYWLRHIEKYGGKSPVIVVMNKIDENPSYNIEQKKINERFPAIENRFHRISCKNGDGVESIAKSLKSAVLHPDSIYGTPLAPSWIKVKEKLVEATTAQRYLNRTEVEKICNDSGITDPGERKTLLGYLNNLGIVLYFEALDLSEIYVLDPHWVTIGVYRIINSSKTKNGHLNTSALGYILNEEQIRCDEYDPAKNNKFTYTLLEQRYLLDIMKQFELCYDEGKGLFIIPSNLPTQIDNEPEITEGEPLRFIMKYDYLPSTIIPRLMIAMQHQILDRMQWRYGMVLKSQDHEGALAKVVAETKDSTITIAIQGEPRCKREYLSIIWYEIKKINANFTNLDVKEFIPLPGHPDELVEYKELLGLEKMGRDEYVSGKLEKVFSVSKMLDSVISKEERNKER
# T2: CtRoco (Chlorobaculum tepidum, UniProt Q8KC98)
# T2 construct: gene CT1526; full length, residues 1-1102, N-terminal His-tag (pProEX), E. coli BL21(DE3); dimer nucleotide-free, monomer/dimer equilibrium with GppNHp
# T2 sequence (Q8KC98 1-1102): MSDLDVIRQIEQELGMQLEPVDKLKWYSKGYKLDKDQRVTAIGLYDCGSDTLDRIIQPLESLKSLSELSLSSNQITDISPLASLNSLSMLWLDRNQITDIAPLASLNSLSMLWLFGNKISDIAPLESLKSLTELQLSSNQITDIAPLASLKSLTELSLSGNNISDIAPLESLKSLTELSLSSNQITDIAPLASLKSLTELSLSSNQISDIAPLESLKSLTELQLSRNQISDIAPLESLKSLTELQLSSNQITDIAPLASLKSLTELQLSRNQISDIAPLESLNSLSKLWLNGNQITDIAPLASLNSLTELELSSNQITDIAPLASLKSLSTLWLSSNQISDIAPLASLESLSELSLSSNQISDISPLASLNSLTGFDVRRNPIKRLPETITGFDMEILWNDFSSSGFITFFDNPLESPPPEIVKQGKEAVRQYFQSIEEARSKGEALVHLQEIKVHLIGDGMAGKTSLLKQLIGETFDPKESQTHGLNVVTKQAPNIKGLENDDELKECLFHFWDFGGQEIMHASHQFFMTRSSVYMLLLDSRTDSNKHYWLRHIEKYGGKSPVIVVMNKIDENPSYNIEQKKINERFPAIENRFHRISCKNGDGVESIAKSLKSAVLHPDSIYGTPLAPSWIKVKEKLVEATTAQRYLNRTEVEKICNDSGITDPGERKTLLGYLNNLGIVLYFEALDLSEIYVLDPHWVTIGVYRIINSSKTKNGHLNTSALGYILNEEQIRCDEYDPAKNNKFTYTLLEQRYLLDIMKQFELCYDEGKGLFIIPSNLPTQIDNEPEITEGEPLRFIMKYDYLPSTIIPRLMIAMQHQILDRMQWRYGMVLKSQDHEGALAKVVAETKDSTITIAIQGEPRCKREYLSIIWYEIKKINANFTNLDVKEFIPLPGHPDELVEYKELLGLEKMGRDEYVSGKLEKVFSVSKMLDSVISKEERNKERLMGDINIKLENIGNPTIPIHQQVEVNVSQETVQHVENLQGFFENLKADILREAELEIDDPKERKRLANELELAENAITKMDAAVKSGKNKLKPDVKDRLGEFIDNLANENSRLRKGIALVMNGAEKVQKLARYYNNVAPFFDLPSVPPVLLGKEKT
# B1: CtRoc-COR L487A mutant (domain or fragment, Chlorobium tepidum, UniProt Q8KC98 412-946, looked up)
# chain: T1 sequence (Q8KC98 412-946) with L76A
# notes: Roco protein from Chlorobium tepidum, Roc-COR module a.a; 412-946, with L487A (analogue of LRRK2 I1371V); also called L487A CtRoc-COR
# B2: Roc-COR domain construct of the Chlorobium tepidum Roco protein (CtRoc-COR) (domain or fragment, UniProt Q8KC98 412-946, looked up)
# chain: T1 sequence (Q8KC98 412-946)
# notes: Roco protein from Chlorobium tepidum (CtRoco), central Roc-COR module, a.a; 412-946; The monomer chain is written; also called CtRoc-COR wt; Roc-COR module; source: E. coli BL21 (DE3), purified (Ni-NTA IMAC, EDTA treatment, Superdex S200 SEC)
# B3: Roco protein from Chlorobium tepidum (CtRoco), full length (natural protein, UniProt Q8KC98 1-1102, looked up)
# chain: T2 sequence (Q8KC98 1-1102)
# notes: Roco protein from Chlorobium tepidum (CtRoco), a.a; 1-1102: LRR domain (1-411), Roc-COR module (412-946), C-terminal region (947-1102); also called CtRoco wt; C. tepidum Roco protein; source: E. coli BL21 (DE3), purified (Ni-NTA IMAC, EDTA treatment, Superdex S200 SEC)
# B4: CtRoco L487A mutant, full length (natural protein, Chlorobium tepidum, UniProt Q8KC98 1-1102, looked up)
# chain: T2 sequence (Q8KC98 1-1102) with L487A
# notes: Roco protein from Chlorobium tepidum (CtRoco), a.a; 1-1102, with L487A (analogue of LRRK2 I1371V); also called L487A CtRoco
# Tests used:
# CtRoc-COR [1] = target: T3, CtRoc-COR (Chlorobaculum tepidum, UniProt Q8KC98, S928C, form not given); experiment: stopped-flow Cy3/Cy5 FRET, monomerization; assay type: binding; conditions: 50 µM or 1 µM GTP, Cy3/Cy5-labelled protein, 25 °C
# T3 construct: gene CT1526; Roc-COR domains, residues 412-946, N-terminal His-tag (pProEX), E. coli BL21(DE3); dimer nucleotide-free, about 65 kDa monomer
# CtRoc-COR [2] = target: T1, CtRoc-COR; experiment: SEC-SAXS, SEC-MALS, native MS, SV-AUC (oligomeric shift); assay type: binding; conditions: pre-incubated with 1 mM (SAXS, MALS), pH 7.5, 5 mM MgCl2
# CtRoco = target: T2, CtRoco; experiment: SEC-SAXS, SEC-MALS, native MS, AUC, negative-stain EM (oligomeric shift); assay type: binding; conditions: pre-incubated with 1 mM (SAXS, MALS, EM), pH 7.5, 5 mM MgCl2
# [3] = target: the molecule itself; experiment: SEC-MALS; nucleotide-free protein; 10 µl of 8 mg ml^-1 injected on a Bio SEC-3 column; buffer as for SEC-SAXS
# [4] = target: the molecule itself; experiment: cell-based or functional assay
# [5] = target: the molecule itself; experiment: native MS; GppNHp: pre-incubated with 500 µM, 100 µM in 150 mM ammonium acetate pH 7.5; protein 12.5-16 µM
# [6] = target: the molecule itself; experiment: SEC-SAXS; nucleotide-free protein; 50 µl of 8 mg ml^-1 injected on a Bio SEC-3 column; 20 mM Hepes pH 7.5, 150 mM NaCl, 5 mM MgCl2, 5% glycerol, 1 mM DTT; mass from Porod volume
# [7] = target: the molecule itself; experiment: AUC; sedimentation equilibrium, with GppNHp; dimer to monomers; 7.2, 4.5 and 2.7 µM protein; buffer as SV-AUC; SEDPHAT monomer-dimer model; approximate KD
# [8] = target: the molecule itself; experiment: AUC; sedimentation equilibrium, with GDP; dimer to monomers; 7.2, 4.5 and 2.7 µM protein; buffer as SV-AUC; SEDPHAT monomer-dimer model; approximate KD
# T3 sequence (Q8KC98 entry or part of it S928C, form open): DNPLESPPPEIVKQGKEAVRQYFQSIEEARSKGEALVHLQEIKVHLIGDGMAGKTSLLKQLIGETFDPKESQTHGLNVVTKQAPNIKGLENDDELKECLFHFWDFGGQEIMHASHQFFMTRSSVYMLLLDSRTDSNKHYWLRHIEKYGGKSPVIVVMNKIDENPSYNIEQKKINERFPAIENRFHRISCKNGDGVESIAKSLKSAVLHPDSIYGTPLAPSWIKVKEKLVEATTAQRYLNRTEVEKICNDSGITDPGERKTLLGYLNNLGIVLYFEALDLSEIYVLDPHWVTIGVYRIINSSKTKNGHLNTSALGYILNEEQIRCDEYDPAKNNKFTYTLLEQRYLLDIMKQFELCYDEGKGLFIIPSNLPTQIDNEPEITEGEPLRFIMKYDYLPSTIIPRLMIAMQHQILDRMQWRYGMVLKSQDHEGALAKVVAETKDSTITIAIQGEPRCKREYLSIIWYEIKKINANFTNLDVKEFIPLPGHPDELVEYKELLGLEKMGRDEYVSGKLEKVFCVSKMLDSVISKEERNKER
molecule,measurement,setting,value
Nc1nc2c(ncn2[C@@H]2O[C@H](COP(=O)(O)OP(=O)(O)OP(=O)(O)O)[C@@H](O)[C@H]2O)c(=O)[nH]1 [GTP],"stopped-flow Cy3/Cy5 FRET, monomerization",CtRoc-COR [1],a fast decrease in FRET signal is observed upon mixing the protein
Nc1nc2c(ncn2[C@@H]2O[C@H](COP(=O)(O)OP(=O)(O)NP(=O)(O)O)[C@@H](O)[C@H]2O)c(=O)[nH]1 [GppNHp],"SEC-SAXS, SEC-MALS, native MS, SV-AUC (oligomeric shift)",CtRoc-COR [2],the GTP mimic GppNHp induces monomerization in a concentration dependent manner
same,"SEC-SAXS, SEC-MALS, native MS, AUC, negative-stain EM (oligomeric shift)",CtRoco,As for CtRoc-COR this indicates that GppNHp induces monomerization
B1,stoichiometry N,[3],2
same,"single-turnover GTP hydrolysis rate constant (1 µM protein, 1 µM GTP, GDP formation by reversed-phase HPLC), L487A against wild-type CtRoc-COR",[4],4 fold decrease
B2,monomer/dimer ratio,[5],~1 monomer/dimer
same,stoichiometry N,[6],2
B3,Kd,[7],~30 µM
same,Kd,[8],~2 µM
same,monomer-dimer ratio,[5],1 monomer/dimer
same,stoichiometry N,[6],2
B4,stoichiometry N,[3],2

# Reference: publication PMC5714945, “A homologue of the Parkinson’s disease-associated protein LRRK2 undergoes a monomer-dimer transition during GTP turnover” (Nature Communications, 2017)
